From publication PMC3814370 (2013)

Biological target: Pcc1–Kae1 binary complex from Pyrococcus abyssi (Pyrococcus abyssi (strain GE5 / …, UniProt Q9V1Z9,Q9UXT7))
Test: gel filtration

Sequence of Pcc1–Kae1 binary complex from Pyrococcus abyssi (Pyrococcus abyssi (Q9V1Z9 whole entry, chain 1 of 2): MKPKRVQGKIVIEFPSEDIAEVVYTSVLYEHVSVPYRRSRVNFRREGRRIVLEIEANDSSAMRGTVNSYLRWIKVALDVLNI
Sequence of Pcc1–Kae1 binary complex from Pyrococcus abyssi (Pyrococcus abyssi (Q9UXT7 whole entry, chain 2 of 2): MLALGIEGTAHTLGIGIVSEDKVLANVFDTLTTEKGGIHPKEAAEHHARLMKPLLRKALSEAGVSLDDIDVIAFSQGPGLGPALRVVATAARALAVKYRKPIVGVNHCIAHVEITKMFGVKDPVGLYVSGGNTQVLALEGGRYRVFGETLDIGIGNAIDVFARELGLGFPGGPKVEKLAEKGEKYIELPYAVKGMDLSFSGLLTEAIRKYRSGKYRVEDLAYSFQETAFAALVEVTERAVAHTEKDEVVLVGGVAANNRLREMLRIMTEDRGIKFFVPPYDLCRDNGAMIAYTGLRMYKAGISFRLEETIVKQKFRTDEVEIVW

B1: Bud32–Cgi121 binary complex from Pyrococcus abyssi (protein)
chain 1: MKLIKQGAEAKIYLAEFSELYFDYPIKVIVKERIKKRYRIPEIDLKLRKERTIREARILRRAKEFGVNVPYVFEVDTKNMIIVMEYIEGERLKELLEKLPMEERLKVCREVGRQIGKLHEAGIVHGDLTTSNMILREGKVYFIDFGLAEFDDTIEAQGVDLHLLKRAMESTHYKWFERGFEEVLKGYIEIRGEDKGREIREKIREIELRGRYRERSWITQ
chain 2: MTPKFKNFKHDNSGQVETYLFEVISKYTMLEIKTKFGKLCIAKVKLASESIERALNLCNDNCQIVSAKCHEEVIFATILAIKAFSSGRNTAKTIKGEILLRLAGVKQIKDAIKIIGARKGENLIIYFGVSDPCSSLKDFISSLGLREEPLKPCDEDEVKRGFERAAIIEAL
B1: binds.
